# Reference: publication PMC7467872
# B1: VRC34.07 Fab (Fab, V domains shown)
# VH: SQYLAQPGAEVAKPGASVKVSCKVHGDNFRGHYLHWVRQAPGQGLQWIGGINPFSGEAAYGKRFEGRLRLTRDTSVNTAYMELAKLTPDDTAVYFCARDKTYNDEFTAMDIWGHGTTVIVSS
# VL: DIKLTQSPAFLSASVGERVTFTCRASQDISHDLVWFQQKAGRAPSLLMFYGSTLERGVPPRFSGRRSGTEFTVTIDSLQPEDVGTYYCQQLSAFPLTFGGGTTVDIK
# B2: VRC34-pI3 P33A (heavy chain) mutant antibody (antibody, V domains shown)
# VH: QEVLVQSGAEVKKPGASVKVSCKAFGYTFTGNAMHWVRQAPGQGLEWMGWINPHSGDTTTAQKFQGRVYMTRDKSINTAYLDVTRLTSDDTAIYYCARDKYYGNEAVGMDVWGQGTTVTVSS
# VL: DIQLTQSPSFLSASVGDRVTITCRASQGISNELAWYQQKPGKAPNLLIYYASTLQSGVPSRFSASGSGTHFTLTISSLQPEDFATYFCQHMSSYPLTFGGGTKVEIK
# B3: VRC34.05 Fab (Fab, V domains shown)
# VH: SQYLAQSGSEVKKPGASVKVSCRLHGDKFGAHYIHWVRQAPGQGLEWLGFFHPGTGDAVSAQKFQGRISLTRDTSISTGYLEVRRLSSDDTAVYYCARDKTYSDEATGMDIWGQGTTVIVSS
# VL: DIKLTQSPAFLSASVGERVTFTCRASQDIRHELVWYQQKPGRGPKLLIYYGSTLEGGVPSRFSGRRSGTEFTVTISSLQPEDVGTYYCQQLNSFPLTFGGGTTVDIR
# Tests used:
# [1] = target: His-tagged FP8_v1 (HIV-1); assay: SPR
# [2] = target: His-tagged FP8_v1 (HIV-1); assay: BLI
# [3] = target: BG505 DS-SOSIP ∆88 Env trimer (glycan N88 removed) (HIV-1 strain BG505); assay: SPR
binder,measurement,setting,value
B1,Kd,[1],0.2 nM
B2,Kd,[2],60 nM
B3,fold decrease of affinity against the BG505 trimer with glycan N88,[3],100 fold
